Measurements as given in paper PMC11147780, “Vaccination induces broadly neutralizing antibody precursors to HIV gp41” (Nature Immunology, 2024).
Changes are numbered by the printed parent chain.

T1: 10E8-GT10.2 epitope scaffold (designed scaffold 10E8-GT10.2 with …, N-linked glycosylation sites added (positions not given))
T1 chain: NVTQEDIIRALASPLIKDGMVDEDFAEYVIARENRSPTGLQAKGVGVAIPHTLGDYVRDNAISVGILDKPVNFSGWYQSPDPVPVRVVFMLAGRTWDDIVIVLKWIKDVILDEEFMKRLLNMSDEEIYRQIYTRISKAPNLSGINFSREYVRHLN

B1: MPER18_d21_45.1_v55_m3_C07 (antibody, V domains shown)
VH: QVQLKQSGPGLVQPSQSLSITCTVSGFSLTNYDIHWVRQSPGKGLEWLGVIWSGGSTDYNAGFISRLSISKDNSKSQVFFKMNSLQGDDTAIYYCARGGGYYEDYVMDYWGQGTSVTVSS
VL: DIQMTQSPASLSASVGETVTITCRASGNIHNYLAWYQQKQGESPHLLVYNAKTLADGVPSRFSGSDSGTQYSLKINSLQPEDFGSYYCQHFWTTPYTFGGGTKLEIK
B2: MPER18_d21_45.1_v55_m3_D01 (antibody, V domains shown)
VH: B1 VH with I34V, E46A, G62T, S76T, G87A, V106A
VL: NIVLTQSPASLAVSLGQRATISCRASESVDTYGNSFMHWYQLKPGQPPKLLIYLASNLESGVPARFSGSGSRTDFTLTIDPVEADDAATYYCQQNNEDPYTFGGGTELEIQ
B3: MPER18_d21_45.1_v55_m3_D12 (antibody, V domains shown)
VH: QVQLQQSGAELMKPGASVILSCKATGYTFTGYWIEWVKLRPGHGLEWIGEILPGNSSTKYNEKFKGKATFTADTSSNTANMQLSSLTTEDSAIYYCARRWNDYDGVAWFGYWGQGTLVSVSA
VL: B1 VL with E42K, H45Q, N50S, D66G, T93S
B4: MPER18_d21_45.1_v55_m3_F02 (antibody, V domains shown)
VH: QVQLKQSGPGLVQPSQSLSITCTVSGFSLTSNGVHWVRQSPGKGLDWLGVIWTGGSTDYNTTFLSRLSISKDNSKSQVFFKMNSLQADDTAIYYCARGGGYYEDYAMDYWGQGTSVTVSS
VL: B1 VL with E42K, H45Q, D66G, Y87C, T93S, K107R
B5: MPER18_d21_45.1_v55_m3_B08 (antibody, V domains shown)
VH: QVQLQQPGAELVKPGASVKLSCKASGYTFTSYWMHWVKQRPGQGLEWIGMIRPNSGSTNYNERFKSKATLTVDKSSSTAYMQLSSLTSGDSAVYYCAKGGTWTMDYWGQGTSVTVSS
VL: DIVMTQSPSSLSVSAGEKVTMICKSSQSLLNSGNQKNYLAWYQQKPGQPPKLLIYGASTRESGVPDRFTGSGSGTDFTLTISSVQAEDLAVYYCQNDHSYPLTFGAGTKLELK
B6: MPER18_d21_45.2_v55_15 (antibody, V domains shown)
VH: QVQLQESGPGLVKPSETLSLTCTVSGGSISSYSWSWIRQPPGKGLEWIGYISYSGSTNYNPSLKSRVTISVDTSKSQFSLKLSSVTAADTAVYYCAREPPYYDFWNELSMGVGAFDIWGQGTMVTVSS
VL: DVLMTQIPLSLPVSLGDQASISCRSSQSIVQNNGNTFLEWFLQKPGQSPKLLIYRVSNRFSGVPDRFSGSGSGTDFTLKISRVEAEDLGVYYCFQGSHVPWTFGGGTKLEIK
B7: MPER18_d21_45.2_v55_m15_A06 (antibody, V domains shown)
VH: B6 VH with T21A, I29F, Y32S, S33Y, S52Y, I69M, S76N, N106S, E107G
VL: B6 VL with I7S, P12S, I29V, Q31H, N32S, F37Y, F41Y, K44Q, R55K
B8: MPER18_d21_45.2_v55_m15_A04 (antibody, V domains shown)
VH: B6 VH with S33Y, S52F, K64R, D72G, S76N, S83N, N106S, E107G, V112M
VL: B6 VL with V2I, I7S, Q31H, N32S, T36S, F37Y, F41Y, R55K, V99I
B9: MPER18_d21_45.2_v55_21 (antibody, V domains shown)
VH: B6 VH with S33Y, S76N, A87T
VL: B6 VL with R24S
B10: MPER-052 (antibody, V domains shown)
VH: EVQLVESGGGLVQPGRSLRLSCTASGFTFGDYAMSWVRQAPGKGLEWVGFIRSKAYGGTTEYAASVKGRFTISRDDSKSIAYLQMNSLKTEDTAVYYCTRDLMGYYDFWSGYYRGHYGMDVWGKGTTVTVSS
VL: AIQMTQSPSSLSASVGDRVTITCRASQGIRNDLGWYQQKPGKAPKLLIYAASSLQSGVPSRFSGSGSGTDFTLTISSLQPEDFATYYCLQDYNYPLTFGGGTKVEIK
B11: NHP-10E8_MPER-GT10v55_W3-19 (antibody, V domains shown)
VH: EVQLVESGGGLVQPGGSLRLSCAASGFTFSNYWMSWVRQAPGKGLEWVGFIKNKADGGTAAYAESVKGRFSISRDDSKNTLYLQMNSLKTEDTAVYYCTRDVGRYNFWSGYYSHNRIDVWGPGVLVTVSS
VL: SYELTQPPSVSVSPGQMARITCGGDNLGSKYVHWFQQKPAQAPALVIYDDSDRPSGIPERFSGSKSGNTATLTISGVESGDEADYYCQVWDSGTDHPLFGGGTRLTV
B12: MPER-051 (antibody, V domains shown)
VH: QVQLVESGGGLVKPGGSLRLSCAASGFTFSDYYMSWIRQAPGKGLEWVSYISSSGSTIYYADSVKGRFTISRDNAKNSLYLQMNSLRAEDTAVYYCASLAHTYYDFWSGYYDRYYGMDVWGKGTTVTVSS
VL: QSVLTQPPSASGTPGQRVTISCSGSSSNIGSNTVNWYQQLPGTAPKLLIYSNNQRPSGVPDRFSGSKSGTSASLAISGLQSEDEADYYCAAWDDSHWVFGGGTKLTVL
B13: MPER18_d21_45.2_v55_04 (antibody, V domains shown)
VH: QVQLQESGPGLVKPSETLSLTCTVSGDSISSYYWNWIRQPPGKGLEWIGYFYYYGSTNYNPSLKSRVTISVDTSKNQFSLNLSSVTAADTAVYYCAREPPYYDFWSGLSMGVDTFDIWGQGTMVTVSS
VL: DVVMTQTPLSLPVSLGDQASISCRSSQSLVHSNGNTYLHWYLQKPGQSPKLLIYKVSNRFSGVPDRFSGSGSGTDFTLKISRVEAEDLGVYFCSQSTHVPRTFGGGTKLEIK
B14: MPER18_d21_45.2_v55_24 (antibody, V domains shown)
VH: B6 VH with S33Y, S52Y, S76N, N106S, E107G, M123L
VL: DVLLTQSPLALPVSLGDQASISCRSSQSIVHSNGYTYLEWYLQKPGQSPKLLVYKVSNRFSGVPDRFSGSGSGTDFTLKISRVETEDLGVYYCFQGSHVPYTFGGGTKLEIK
B15: MPER18_d21_45.2_v55_22 (antibody, V domains shown)
VH: B6 VH with S33Y, S52Y, S76N, N106G, E107G, S109F
VL: B6 VL with I7T, Q31H, N32S, F41Y, K50N, F60L
B16: MPER18_d21_45.2_v55_12 (antibody, V domains shown)
VH: B13 VH with K13T, G49E, F51M, Y52F, Y54S, N81K, D113G, T114A
VL: B14 VL with V2I, L3V, L4M, A10S, E39D, K44R, V53I, T85A
B17: MPER18_d21_45.2_v55_m15_C05 (antibody, V domains shown)
VH: B6 VH with S33C, P40S, S52Y, T57I, Y59H, V71A, S76N, N106S, E107G
VL: B13 VL with V2I, T7S, S32N, K44Q, K55N, V56F
B18: MPER18_d21_45.2_v55_17 (antibody, V domains shown)
VH: B6 VH with S33F, S52Y, Y53N, N60H, S76N, N106S, E107G
VL: B6 VL with I7T, Q31H, N32S, N33S, F37Y, F41Y, R55K, F67I, S68G, Y92F
B19: NHP-10E8_MPER-GT10v55_W3-18 (antibody, V domains shown)
VH: EVQLVESGGGLVQPGGSLRLSCAASGFTFSDYAMDWVRQAPGKGLEWVGYIRSKDYGGTAEYAASVKGRLTISRDDSKNTAYLQMNSLKTEDTAVYYCSRGRGYYHFWSGYYTPYNRFDVWGPGVLVTVSS
VL: DVVMTQSPLSLPVTPGQPASISCRSSQSLVHSDGKTYLNWLQQKPGQPPRRLIYQVSNRDSGVPDRFSGSGAGTDFTLKISRVEAEDVGVYYCVQGTNVPWTFGQGTKVEIK
B20: MPER18_d21_45.1_v55_m3_F03 (antibody, V domains shown)
VH: EVQLQQSGPVLVKPGPSLKISCKASGFTITDYYMHWVKQTHGKSLAWIGLLYPYNGGTSYNQKFKGKATLTVDTSSSTAYMELNSLTSDDSAVYYCAREGHYDRKGYFDVWGTGTTVTVSS
VL: DIVMTQSHKFMSTSVGDRVSITCKASQDVSTAVAWYQQKPGQSPKLLIYWASTRHTGVPDRFTGSGSGTDYTLIISSVQAEDLALYYCQQHYSIPFTFGSGTKLEIK

Molecular target: T1, 10E8-GT10.2 epitope scaffold

Binder	Kd [nM]
B1	985
B2	3.38
B3	1250
B4	94.6
B5	245
B6	9.89
B7	86.1
B8	14.1
B9	2.21
B10	4100
B11	345
B12	13000
B13	563
B14	0.249
B15	2.87
B16	0.662
B17	401
B18	13.2
B19	1.16
B20	31.2
